Assays:
USP5 [1] = target: USP5 (UniProt P45974); assay: anti-HA co-immunoprecipitation, immunoblot; conditions: reference: PD-1 wild type; sites T234
USP5 [2] = target: USP5 (UniProt P45974); assay: GST-USP5 pull-down from cell lysate; conditions: reference: PD-1-cHA wild type lysate; sites T234
USP5 [3] = target: USP5 (UniProt P45974); assay: biotin-peptide streptavidin pull-down; conditions: reference: unphosphorylated PD-1 peptide; sites T234
USP5 UBA1/2 domains = USP5 UBA1/2 domains (UniProt P45974); assay: biotin-peptide streptavidin pull-down; conditions: reference: unphosphorylated PD-1 peptide; sites T234
USP5 [4] = target: USP5 (UniProt P45974); assay: GST pull-down with purified His-USP5; conditions: reference: GST-PD-1 (192-288) wild type, ERK1-treated; sites T234
His-USP5 = target: T1, His-USP5 (human, UniProt P45974 1-858); assay: pull-down; bacterially purified GST-PD-1 (192-288) phosphorylated by ERK1 in vitro, then GST pull-down with purified recombinant His-USP5, immunoblot; conditions: both partners purified
T1 construct: recombinant human USP5, His-tagged; also called recombinant human USP5 protein; purified recombinant His-USP5; source: bought: Sino biological (12772-H08B), purified recombinant USP5 from baculovirus-insect cells
T1 sequence (looked up): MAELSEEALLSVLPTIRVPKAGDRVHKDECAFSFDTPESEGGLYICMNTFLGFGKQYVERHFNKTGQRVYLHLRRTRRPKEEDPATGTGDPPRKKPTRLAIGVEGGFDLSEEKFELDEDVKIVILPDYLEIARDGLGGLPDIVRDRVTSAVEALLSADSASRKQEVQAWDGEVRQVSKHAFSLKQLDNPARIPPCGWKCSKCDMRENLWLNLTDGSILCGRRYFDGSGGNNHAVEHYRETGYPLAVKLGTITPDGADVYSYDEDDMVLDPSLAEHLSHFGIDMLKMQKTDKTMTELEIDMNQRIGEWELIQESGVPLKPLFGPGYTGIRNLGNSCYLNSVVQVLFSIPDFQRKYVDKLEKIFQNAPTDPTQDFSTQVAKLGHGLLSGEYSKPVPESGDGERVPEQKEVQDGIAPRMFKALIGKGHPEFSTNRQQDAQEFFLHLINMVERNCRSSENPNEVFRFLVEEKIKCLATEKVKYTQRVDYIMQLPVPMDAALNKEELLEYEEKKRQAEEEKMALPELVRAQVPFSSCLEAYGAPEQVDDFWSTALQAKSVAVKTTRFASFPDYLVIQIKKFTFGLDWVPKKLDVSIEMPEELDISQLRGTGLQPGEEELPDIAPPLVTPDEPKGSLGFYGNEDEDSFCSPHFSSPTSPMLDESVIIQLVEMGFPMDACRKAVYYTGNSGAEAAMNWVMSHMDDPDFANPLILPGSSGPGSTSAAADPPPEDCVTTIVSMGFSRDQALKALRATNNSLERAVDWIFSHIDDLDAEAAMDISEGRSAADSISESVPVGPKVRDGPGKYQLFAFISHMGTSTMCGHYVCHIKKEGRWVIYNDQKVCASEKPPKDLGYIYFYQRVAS

For PD-1 (from UniProt Q15116) PD-1 T234A, the “binding against the reference” value (USP5 [1]) was “weaker”.

For “PD-1 (from UniProt Q15116) PD-1-cHA T234A lysate”, the “binding against the reference” value (USP5 [2]) was “weaker”.

“PD-1 (from UniProt Q15116) pT234 PD-1 peptide” was tested, and the “binding against the reference” value (USP5 [3]) was “gained” and the “binding against the reference” value (USP5 UBA1/2 domains) was “gained”.

For “PD-1 cytoplasmic region, 192-288 (from UniProt Q15116) GST-PD-1 (192-288) T234A, ERK1-treated”, the “binding against the reference” value (USP5 [4]) was “weaker”.

B1: ERK1-phosphorylated GST-PD-1 (192-288) (domain or fragment, human, UniProt Q15116 192-288, looked up)
chain: CSRAARGTIGARRTGQPLKEDPSAVPVFSVDYGELDFQWREKTPEPPVPCVPEQTEYATIVFPSGMGTSSPARRGSADGPRSAQPLRPEDGHCSWPL
modifications: phosphorylated by ERK1 in vitro (the paper maps the ERK site to Thr234)
notes: source: E. coli BL21, purified, then phosphorylated by ERK1 in vitro
B1: binds (His-USP5).
